Among the data in paper PMC4072508, “Genome-Wide Prediction and Validation of Peptides That Bind Human Prosurvival Bcl-2 Proteins” (PLoS Computational Biology, 2014) are SPOT signal as a fraction of Bim BH3's signal on the same receptor and array values, retold here.

One experiment concerns the target Bcl-xL, Q07817. In words: peptide SPOT array, c-Myc-tagged receptor at 1 uM or 100 nM, anti-c-Myc-Cy3.
The next experiment has as its target T1, Mcl-1, Q07820.
T1 chain: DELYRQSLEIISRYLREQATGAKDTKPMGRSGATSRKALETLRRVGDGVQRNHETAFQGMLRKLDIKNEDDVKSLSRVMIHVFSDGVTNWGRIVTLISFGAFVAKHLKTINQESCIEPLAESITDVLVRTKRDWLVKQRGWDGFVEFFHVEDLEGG
Described as above.

Bcl-xL, Q07817, sequence (Q07817 1-209): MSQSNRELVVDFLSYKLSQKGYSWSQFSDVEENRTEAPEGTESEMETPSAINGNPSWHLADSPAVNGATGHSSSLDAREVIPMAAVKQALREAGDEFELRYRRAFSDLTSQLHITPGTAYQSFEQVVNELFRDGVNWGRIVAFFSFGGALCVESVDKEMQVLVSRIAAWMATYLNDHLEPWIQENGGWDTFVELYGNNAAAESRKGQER

Turning to DSLAKFAGRKDKDCGEDLLVEISEVL [PCM1], the SPOT signal as a fraction of Bim BH3's signal on the same receptor and array with Bcl-xL, Q07817 was found to be 0.01; with Mcl-1, Q07820 it was 0.01.

In the case of AICIEEIGVWMKMYLDAFLNDSYLKY, the SPOT signal as a fraction of Bim BH3's signal on the same receptor and array was found to be 0.02 with Bcl-xL, Q07817 and 0.03 with Mcl-1, Q07820.

For RCELQICGLAMADAGEYLCVCGQERT [OBSCN], the SPOT signal as a fraction of Bim BH3's signal on the same receptor and array with Bcl-xL, Q07817 worked out at 0.01; with Mcl-1, Q07820, 0.01.

SHALICISHWILGIGDRHLNNFMVAM [PRKDC]: the SPOT signal as a fraction of Bim BH3's signal on the same receptor and array with Bcl-xL, Q07817 was determined as 0.02; in the experiment with Mcl-1, Q07820, 0.02.

As for AFTEREASEIMKSIGEAIQYLHSINI [MAPKAPK2], the SPOT signal as a fraction of Bim BH3's signal on the same receptor and array in the experiment with Bcl-xL, Q07817 is 0.02; in the experiment with Mcl-1, Q07820, 0.02.

Consider ERAISCMGQIICNLLDNLGSDLPNTL [CAND1], for which the SPOT signal as a fraction of Bim BH3's signal on the same receptor and array was 0.02 with Bcl-xL, Q07817 and 0.01 in the experiment with Mcl-1, Q07820.

Take SALETQVAAAVQALADDYLAQLSLEP [TRO]: the SPOT signal as a fraction of Bim BH3's signal on the same receptor and array in the experiment with Bcl-xL, Q07817 stood at 0.01; in the experiment with Mcl-1, Q07820, 0.01.

In the case of QQMHHNAATAMAQRLDMLRGLSPRES [NCOR2], the SPOT signal as a fraction of Bim BH3's signal on the same receptor and array came to 0.13 with Bcl-xL, Q07817 and 0.08 with Mcl-1, Q07820.

Turning to SQGDKRVAFFDRKGADCLSKWVGESE, the SPOT signal as a fraction of Bim BH3's signal on the same receptor and array in the experiment with Bcl-xL, Q07817 was found to be 0.02; in the experiment with Mcl-1, Q07820 it was 0.02.

For NKSLTTLGLVDSSLADQAAGKGKSKF, the SPOT signal as a fraction of Bim BH3's signal on the same receptor and array in the experiment with Bcl-xL, Q07817 came to 0.29; with Mcl-1, Q07820, 0.19.

Take VDFYQPTCIVLQCGLDSLGCDRLGCF [HDAC3]: the SPOT signal as a fraction of Bim BH3's signal on the same receptor and array with Bcl-xL, Q07817 was 0.01; with Mcl-1, Q07820, 0.01.

With VLSRIEAGRSDKSVADEFGISKSTFY [TIGD7_3eA], the SPOT signal as a fraction of Bim BH3's signal on the same receptor and array in the experiment with Bcl-xL, Q07817 turned out to be 0.02; with Mcl-1, Q07820 it was 0.02.

Consider SQGDKRVAFFMRKGADCLSKWVGESE, for which the SPOT signal as a fraction of Bim BH3's signal on the same receptor and array with Bcl-xL, Q07817 came out at 0.13; with Mcl-1, Q07820, 0.06.

Regarding NKRHRPIGIGDQGLADAFILMRYPFE [RRM1], the SPOT signal as a fraction of Bim BH3's signal on the same receptor and array was found to be 0.02 with Bcl-xL, Q07817 and 0.02 with Mcl-1, Q07820.

As to GSGLHGWAFTLKQFLEMYVAKFAAKG [EEF2], the SPOT signal as a fraction of Bim BH3's signal on the same receptor and array with Bcl-xL, Q07817 turned out to be 0.25; with Mcl-1, Q07820, 0.12.

Consider QLSKPGAALYDQSIGEGFKEAVQYVL [SOS1], for which the SPOT signal as a fraction of Bim BH3's signal on the same receptor and array in the experiment with Bcl-xL, Q07817 was 0.02; with Mcl-1, Q07820, 0.02.

With RDPQGWVAGNDSARGDGAAGFTLPGF [MST1R], the SPOT signal as a fraction of Bim BH3's signal on the same receptor and array with Bcl-xL, Q07817 turned out to be 0.01; in the experiment with Mcl-1, Q07820, 0.02.

Consider LSPGRSVTAGIIIVLDEILKGHTQDT [FLAD1], for which the SPOT signal as a fraction of Bim BH3's signal on the same receptor and array came out at 0.01 with Bcl-xL, Q07817 and 0.01 with Mcl-1, Q07820.

For the molecule KNIAGALAFWMANASELLNFIKQDRD [MLLT4], the SPOT signal as a fraction of Bim BH3's signal on the same receptor and array worked out at 0.03 in the experiment with Bcl-xL, Q07817 and 0.03 in the experiment with Mcl-1, Q07820.

Turning to AICIEEIGVWDKMYSDAFLNDSYLKY, the SPOT signal as a fraction of Bim BH3's signal on the same receptor and array with Bcl-xL, Q07817 is 0.05; with Mcl-1, Q07820, 0.03.

KKCQDMIMTELTNAGDDVVVFYNDKA [ITPR3]: the SPOT signal as a fraction of Bim BH3's signal on the same receptor and array was 0.02 with Bcl-xL, Q07817 and 0.01 with Mcl-1, Q07820.

Consider NKSLTTLGLVISSLLDQAAGKGKSKF, for which the SPOT signal as a fraction of Bim BH3's signal on the same receptor and array with Bcl-xL, Q07817 was determined as 0.26; with Mcl-1, Q07820, 0.18.

Take IGFFIAFGIAMGKMLDQAKLMVDFFN: the SPOT signal as a fraction of Bim BH3's signal on the same receptor and array with Bcl-xL, Q07817 is 0.03; in the experiment with Mcl-1, Q07820, 0.03.

As to CALIAGATLHVAWLLDSQVILVQQGQ [PPM1F], the SPOT signal as a fraction of Bim BH3's signal on the same receptor and array with Bcl-xL, Q07817 is 0.02; in the experiment with Mcl-1, Q07820, 0.01.

Regarding HGTSSRIGSSMKSVLEVMAIGRTFEE [CPS1], the SPOT signal as a fraction of Bim BH3's signal on the same receptor and array turned out to be 0.02 with Bcl-xL, Q07817 and 0.02 with Mcl-1, Q07820.

Consider SKFVILSAHKLVFILDTLSRQAKAAD [BCAR1], for which the SPOT signal as a fraction of Bim BH3's signal on the same receptor and array with Bcl-xL, Q07817 came to 0.07; with Mcl-1, Q07820, 0.02.

In the case of GLTWDPVGKYIASQADDRSLKVWRTL [HIRA], the SPOT signal as a fraction of Bim BH3's signal on the same receptor and array with Bcl-xL, Q07817 amounted to 0.81; with Mcl-1, Q07820, 0.94.

With SPYVFNGGTIDAIAGEDFAIVASDTR [PSMB1], the SPOT signal as a fraction of Bim BH3's signal on the same receptor and array with Bcl-xL, Q07817 stood at 0.01; with Mcl-1, Q07820, 0.01.

With CDLLGAKGKDDLYIGDHIFGDILKSK [NT5C2], the SPOT signal as a fraction of Bim BH3's signal on the same receptor and array with Bcl-xL, Q07817 is 0.02; in the experiment with Mcl-1, Q07820, 0.04.

In the case of RLAHEHHCLRIKILLDCYYCVSGLPE [ADCY8], the SPOT signal as a fraction of Bim BH3's signal on the same receptor and array with Bcl-xL, Q07817 stood at 0.02; with Mcl-1, Q07820 it was 0.03.

As to CILNSFYGYVMRKGARWYSMEMAGIV [POLE], the SPOT signal as a fraction of Bim BH3's signal on the same receptor and array worked out at 0.18 in the experiment with Bcl-xL, Q07817 and 0.12 in the experiment with Mcl-1, Q07820.

Take DVGTGAGLLEIKKIGDEYFTFITDCK [CCT3]: the SPOT signal as a fraction of Bim BH3's signal on the same receptor and array in the experiment with Bcl-xL, Q07817 was 0.01; in the experiment with Mcl-1, Q07820 it was 0.01.

As for IGFFIAFGIADGKMGDQAKLMVDFFN, the SPOT signal as a fraction of Bim BH3's signal on the same receptor and array in the experiment with Bcl-xL, Q07817 is 0.02; with Mcl-1, Q07820, 0.01.

For the molecule PSLSKELTSSLAGVGDVSFDSDSQFP [CRTC1], the SPOT signal as a fraction of Bim BH3's signal on the same receptor and array with Bcl-xL, Q07817 was 0.01; with Mcl-1, Q07820, 0.01.

For the molecule IQQDLGCGASLGVISDNLLVTGGQGC [SCAP], the SPOT signal as a fraction of Bim BH3's signal on the same receptor and array with Bcl-xL, Q07817 is 0.02; with Mcl-1, Q07820 it was 0.01.

Consider LRVSTKIGSCMKSVGEVMGIGRSFEE [CAD], for which the SPOT signal as a fraction of Bim BH3's signal on the same receptor and array in the experiment with Bcl-xL, Q07817 is 0.05; with Mcl-1, Q07820 it was 0.04.

As to DLSAVTLSRELQAMLEQLAENYHNTW [RYR1], the SPOT signal as a fraction of Bim BH3's signal on the same receptor and array in the experiment with Bcl-xL, Q07817 is 0.02; with Mcl-1, Q07820, 0.02.
